The record followed here is doi:10.1101/2021.02.12.430940 (bioRxiv, 2021).

This test concerns the target SARS-CoV-2 RBD-mFc (SARS-CoV-2, reference (Wuhan-Hu-1) by …, UniProt P0DTC2). Kind of test: flow cytometry on cells.

B1: mAb-82 (antibody, V domains shown)
VH: QVQLVQSGAEVKKPGSSVKVSCKASGGTFSSYAISWVRQAPGQGLEWMGGIIPIFGTANYAQKFQGRVTITADESTSTAYMELSSLRSEDTAVYYCARGNDDSSGYYSHYYYGMDVWGQGTTVTVSS
VL: QTVVTQEPSFSVSPGGTVTLTCGLSSGSVSTSYYPSWYQQTPGQAPRTLIYSTNTRSSGVPDRFSGSILGNKAALTITGAQADDESDYYCVLYMGSGAVFGGGTQLTVL
Take B1: the binding result was “binds”.
